Measurements as given in patent US20190241663A1 (Genentech, published 2019).

T1: S114A human B7-H4 (full-length membrane construct, glycosylation site N112-S114 removed) (human, UniProt Q7Z7D3 29-282)
T1 construct: Transiently transfected into 293 cells; also called mutated S114A human B7-H4
T1 sequence: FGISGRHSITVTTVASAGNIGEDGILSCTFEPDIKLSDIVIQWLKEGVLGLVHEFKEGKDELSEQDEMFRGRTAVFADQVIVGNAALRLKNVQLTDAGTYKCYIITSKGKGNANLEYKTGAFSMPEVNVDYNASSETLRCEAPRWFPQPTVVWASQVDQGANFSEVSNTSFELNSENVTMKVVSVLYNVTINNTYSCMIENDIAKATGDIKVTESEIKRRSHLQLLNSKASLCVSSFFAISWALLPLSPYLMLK

T2: irrelevant (Ig-V)-B7-H4 (Ig-C; D158-G236 including TM/CD D237-K282) chimeric membrane protein (construct-88B) (human, UniProt Q7Z7D3 158-282)
T2 construct: Transiently expressed on 293 cells; also called B7-H4 Ig-C domain; not shown: irrelevant Ig-V domain; an N-terminal or cytoplasmic tag was attached but is not described
T2 sequence: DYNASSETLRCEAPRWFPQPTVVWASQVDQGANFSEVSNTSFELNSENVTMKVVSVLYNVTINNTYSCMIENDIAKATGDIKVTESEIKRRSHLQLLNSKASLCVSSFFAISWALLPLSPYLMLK


What was measured:
[1] = molecular target: T1, S114A human B7-H4 (full-length membrane …); assay: FACS on 293 cells transfected with S114A human B7-H4, against isotype control
Text: The B7-H4 (Ig-V) domain contains a single N-linked glycosylation site (N112-S114), and to determine whether glycosylation influences binding of the antibodies to B7-H4, S114 was substituted with alanine using standard site-specific mutagenesis to prevent glycosylation in the full-length human B7-H4 membrane construct.

[2] = molecular target: T2, irrelevant (Ig-V)-B7-H4 (Ig-C; …); assay: FACS on 293 cells transiently transfected with construct-88B, dye-labeled antibody
Text: To determine whether the B7-H4 antibodies bind to either the Ig-V or Ig-C domain of B7-H4, chimeric Ig domain molecules were engineered that contain either a B7-H4 (IgV; G28-F150 including spacer S151-V157)—irrelevant (Ig-C) (construct-88) or an irrelevant (Ig-V)-B7-H4 (Ig-C; D158-G236 including TM/CD D237-K282) (construct-88B) membrane protein using standard molecular cloning methods. N-terminal or cytoplasmic tags were attached to confirm that 293 cells transfected with these constructs express protein on the cell membrane (data not shown). Briefly, 293 cells were transiently transfected with constructs 88 & 88B using polyfect. After 48 hours, the cells were stained with 10 μg/ml of Dylight-488 or −650 labeled ch9B9, ch1D11, ch22C10 or ch32D6 for 30-40 minutes at 4° C., washed and analyzed on a BD FACS calibur.

| Binder | fold binding over isotype control [1] | binding result [2] |
| --- | --- | --- |
| ch1D11, slightly modified version with light chain C43G (antibody, human IgG1, V domains shown, Human IgG1 / kappa chimeric; also called ch1D11 (C43G light chain)) VH: QVQLQQSGAELVRPGTSVKMSCKASGYTFTSYWIGWAKQRPGHGFEWIGDIYPGGGYTNYNEKFKGKATLTADKSSSTAYMQFSSLTSEDSAIYYCARLDGSSYRGAMDSWGQGTSITVSS VL: DIQMTQSPSSLSASLGGKVTITCKASQGFNKYVAWYQHKPGQGPRLLIHYTSTLQPGIPARFSGSGSGRDYSFSISNLEPEDSATYFCLQYGNLLYAFGGGTKLEIKR | 100 fold | no binding (tested: 10 µg/ml) |
| chimeric antibody ch22C10 (antibody, V domains shown, also called ch2210; parental 22C10 antibody) VH: QVQLQQPGAELVKPGTSVKLSCKASGYTFTNFWIHWVIQRPGQGLEWIGEIDPSDSYTNYNQKFKGKATLTVDKSSNTAYMQLSSLTSEDSAVYYCSREITTVDYWGQGTTLTVSS VL: QIVLTQSPTIMSASPGEKVTLTCSATSSISYMHWYQQKPGTSPKGWIYDTSKLAHGVPARFSGSGSGTSYSLTISSMEAEDAATYYCHQRRSYPFTFGSGTKLEIK | 100 fold | no binding (tested: 10 µg/ml) |
| chimeric antibody ch9B9 (antibody, V domains shown) VH: QVQLQQSGAELMKPGASVKMSCKATGYTFSSYWIEWVKQRPGHGLEWIGEILPGTSITTYNAKFKVKATFTADTSSNTAYMQLSSLTSEDSAVYFCARYYFGSSSFYFDYWGQGTSLTVSS VL: QAVVTQESALTTSPGDTVTLTCRSSTGAVTTSNYANWVQEKPDHLFTGLIGGTNNRVPGVPARFSGSLIGDKAALTITGAQTEDEAMYFCALWYNNHWVFGGGTKLE | 100 fold | no binding (tested: 10 µg/ml) |
| chimeric antibody ch32D6 (antibody, V domains shown) VH: EVQLQQSGPDLVKPGASVKISCKASGYSFTGYYIHWMKQSHGKSLEWIGRVNPNNGDPIYNQKFRGKAILTVDQSSNTAYMELRSLTSEASAVYYCARVLFYYGSPFAYWGQGTLVTVSA VL: DIVMTQSPSSLIVTAGEKVTMSCRSSQSLFDSGSQRNYLTWFHQKPGRPPKLLIYWASTRESGVPDRFTGSGSGTDFTLTISSVQTEDLAVYFCQNDYSFPFTFGSGTKLEEK | 100 fold | no binding (tested: 10 µg/ml) |
